Laboratory results reported in paper PMC8070792, “Impaired Ca^2+ Sensitivity of a Novel GCAP1 Variant Causes Cone Dystrophy and Leads to Abnormal Synaptic Transmission Between Photoreceptors and Bipolar Cells” (International Journal of Molecular Sciences, 2021).
Changes are numbered by the printed parent chain. Numbers in names are those of the source. Where two headings read alike, the source gives them in different places.

T1: human guanylate cyclase 1 (GC1) (human, UniProt Q02846 52-1103)
T1 sequence (looked up): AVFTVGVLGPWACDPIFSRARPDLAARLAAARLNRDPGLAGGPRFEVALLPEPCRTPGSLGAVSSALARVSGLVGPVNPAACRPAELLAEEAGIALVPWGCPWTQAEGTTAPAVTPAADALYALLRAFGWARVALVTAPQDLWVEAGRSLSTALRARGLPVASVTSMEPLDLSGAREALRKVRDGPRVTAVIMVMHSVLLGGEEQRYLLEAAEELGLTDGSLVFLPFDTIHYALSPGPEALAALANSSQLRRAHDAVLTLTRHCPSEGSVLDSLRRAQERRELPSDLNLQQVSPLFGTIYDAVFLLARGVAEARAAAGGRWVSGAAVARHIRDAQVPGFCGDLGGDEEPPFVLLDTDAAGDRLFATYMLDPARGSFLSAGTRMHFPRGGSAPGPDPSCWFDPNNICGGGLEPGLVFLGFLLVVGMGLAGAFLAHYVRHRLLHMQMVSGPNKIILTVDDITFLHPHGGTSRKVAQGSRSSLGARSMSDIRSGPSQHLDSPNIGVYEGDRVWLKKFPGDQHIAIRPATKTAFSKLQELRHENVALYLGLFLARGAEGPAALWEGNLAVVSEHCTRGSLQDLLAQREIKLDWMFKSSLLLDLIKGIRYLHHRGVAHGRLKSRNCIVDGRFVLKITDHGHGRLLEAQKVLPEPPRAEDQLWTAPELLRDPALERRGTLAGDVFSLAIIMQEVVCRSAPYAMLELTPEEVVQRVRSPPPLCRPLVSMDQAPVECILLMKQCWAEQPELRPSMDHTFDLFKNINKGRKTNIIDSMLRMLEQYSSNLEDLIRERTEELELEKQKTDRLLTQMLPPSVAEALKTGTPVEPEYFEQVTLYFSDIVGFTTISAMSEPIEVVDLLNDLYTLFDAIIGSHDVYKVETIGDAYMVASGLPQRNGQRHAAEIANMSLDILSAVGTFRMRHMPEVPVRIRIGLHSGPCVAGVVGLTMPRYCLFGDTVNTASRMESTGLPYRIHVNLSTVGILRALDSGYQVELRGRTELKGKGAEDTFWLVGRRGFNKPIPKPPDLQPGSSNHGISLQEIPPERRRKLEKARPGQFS

T2: human guanylate cyclase 2 (GC2) (human, UniProt P51841 51-1108)
T2 sequence (looked up): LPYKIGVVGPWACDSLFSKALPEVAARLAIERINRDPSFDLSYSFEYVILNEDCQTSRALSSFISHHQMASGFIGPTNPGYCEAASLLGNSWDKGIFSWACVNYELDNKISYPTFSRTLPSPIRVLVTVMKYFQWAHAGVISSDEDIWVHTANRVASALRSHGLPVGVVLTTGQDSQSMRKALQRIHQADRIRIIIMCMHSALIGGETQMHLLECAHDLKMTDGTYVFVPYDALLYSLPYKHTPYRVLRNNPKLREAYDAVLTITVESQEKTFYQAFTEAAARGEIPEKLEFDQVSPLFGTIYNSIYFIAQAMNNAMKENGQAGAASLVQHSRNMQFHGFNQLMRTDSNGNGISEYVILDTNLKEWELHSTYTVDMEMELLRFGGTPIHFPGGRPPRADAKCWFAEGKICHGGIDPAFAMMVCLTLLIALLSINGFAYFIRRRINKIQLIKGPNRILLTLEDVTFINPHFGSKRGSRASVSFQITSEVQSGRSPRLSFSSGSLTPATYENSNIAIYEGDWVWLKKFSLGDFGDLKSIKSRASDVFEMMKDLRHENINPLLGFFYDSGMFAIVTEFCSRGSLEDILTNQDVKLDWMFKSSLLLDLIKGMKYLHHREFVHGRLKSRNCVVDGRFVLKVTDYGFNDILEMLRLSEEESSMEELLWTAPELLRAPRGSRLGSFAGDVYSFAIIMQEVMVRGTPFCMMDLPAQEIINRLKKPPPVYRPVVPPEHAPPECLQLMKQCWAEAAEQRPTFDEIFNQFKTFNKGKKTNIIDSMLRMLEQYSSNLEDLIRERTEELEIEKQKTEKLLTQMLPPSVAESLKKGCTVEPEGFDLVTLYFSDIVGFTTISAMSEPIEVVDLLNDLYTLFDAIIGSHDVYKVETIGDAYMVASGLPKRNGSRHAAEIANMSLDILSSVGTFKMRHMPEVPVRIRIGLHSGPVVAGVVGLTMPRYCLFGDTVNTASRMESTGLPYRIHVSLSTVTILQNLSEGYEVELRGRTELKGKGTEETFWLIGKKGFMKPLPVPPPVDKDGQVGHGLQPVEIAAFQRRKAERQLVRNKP

B1: wild-type human GCAP1-E6S (guanylate cyclase-activating protein 1, myristoylated) (natural protein)
chain: MGNVMSGKSVEELSSTECHQWYKKFMTECPSGQLTLYEFRQFFGLKNLSPSASQYVEQMFETFDFNKDGYIDFMEYVAALSLVLKGKVEQKLRWYFKLYDVDGNGCIDRDELLTIIQAIRAINPCSDTTMTAEEFTDTVFSKIDVNGDGELSLEEFIEGVQKDQMLLDTLTRSLDLTRIVRRLQNGEQDEEGADEAAEAAG
modifications: myristoylation on the N-terminal Gly residue
B2: GCAP1 N104K-G105R (guanylate cyclase-activating protein 1, myristoylated, on the E6S background) (natural protein, human, UniProt P43080 1-201, looked up)
chain: B1 chain with N104K, G105R
modifications: myristoylation on the N-terminal Gly residue
notes: cDNA in pET-11a between NdeI and NheI; E6S introduced to allow myristoylation by yeast NMT; N104K and G105R introduced by site-directed mutagenesis; N104K-G105R is the patient's variant; E6S is a change made by people; Myristoylation on the N-terminal Gly implies that the initiator Met is removed (surmised); No tag is mentioned; also called N104K-G105R GCAP1; double mutant; source: E. coli …

How the values were obtained:
[1] = target: T1, human guanylate cyclase 1 (GC1)
[2] = target: T2, human guanylate cyclase 2 (GC2)
[3] = target: T1, human guanylate cyclase 1 (GC1); test: cell-based or functional assay
[4] = target: T2, human guanylate cyclase 2 (GC2); test: cell-based or functional assay
[5] = target: the molecule itself; test: SEC; analytical SEC on Superose 12 10/300 GL; 42 µM protein, 200 µl injected; 20 mM Tris-HCl pH 7.5, 150 mM KCl, 1 mM DTT; with 500 µM EGTA + 1 mM Mg2+ or 500 µM Ca2+ + 1 mM Mg2+; apparent molecular mass from a calibration curve

Row | Binder | X-fold of Ca2+-dependent regulation of GC1 (cGMP synthesis by HEK293 membranes with 5 µM GCAP1, low Ca2+ <19 nM against high Ca2+ ~30 µM) [1] | X-fold of Ca2+-dependent regulation of GC2 (cGMP synthesis by HEK293 membranes with 5 µM GCAP1, low Ca2+ <19 nM against high Ca2+ ~30 µM) [2] | X-fold of Ca2+-dependent regulation of GC1 (cGMP synthesis by HEK293 membranes with 5 µM GCAP1, low Ca2+ <19 nM against high Ca2+ ~30 µM) [3] | X-fold of Ca2+-dependent regulation of GC2 (cGMP synthesis by HEK293 membranes with 5 µM GCAP1, low Ca2+ <19 nM against high Ca2+ ~30 µM) [4] | stoichiometry N [5]
1 | B1 | 37.4 | 10.8 | – | – | –
2 | B2 | – | – | 0.47 | 0.6 | 2
